Measured values reported in patent US7947648 (AEROVANCE, dated 2011).

Experiments:
[1] = target: T1, IL-4 receptor alpha chain (UniProt P24394 26-232, limits assumed); test: Biacore assay, pre- and post-nebulized IL-4RA samples (Aeroneb Pro); no difference between them
T1 construct: also called IL-4Rα; IL-4 receptor α chain
T1 sequence (looked up): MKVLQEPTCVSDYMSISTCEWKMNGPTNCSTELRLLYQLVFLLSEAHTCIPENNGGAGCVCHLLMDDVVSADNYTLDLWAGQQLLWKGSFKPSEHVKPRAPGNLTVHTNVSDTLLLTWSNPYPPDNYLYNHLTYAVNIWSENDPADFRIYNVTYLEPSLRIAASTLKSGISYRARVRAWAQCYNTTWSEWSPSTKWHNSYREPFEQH

[2] = target: T1, IL-4 receptor alpha chain; test: cell-based or functional assay
[3] = target: T1, IL-4 receptor alpha chain; test: Biacore (SPR), IL-4 receptor α chain immobilized; n = 7
[4] = target: T1, IL-4 receptor alpha chain; test: Biacore (SPR), IL-4 receptor α chain immobilized

B1: IL-4RA (mutant human IL-4 protein with the R121D/Y124D pair of substitutions) (ligand)
chain: MHKCDITLQEIIKTLNSLTEQKTLCTELTVTDIFAASKNTTEKETFCRAATVLRQFYSHHEKDTRCLGATAQQFHRHKQLIRFLKRLDRNLWGLAGLNSCPVKEANQSTLENFLERLKTIMDEKDSKCSS
notes: The entry may carry an N-terminal methionine; also called mhIL-4; IL-4 mutein
B1 was tested, and the Kd [1] was ~0.1 nM, the “EC50, inhibition of IL-4-induced cell proliferation (TF-1/IL-4 proliferation assay), pre and post nebulization (Aeroneb Pro)” value [2] was 0.2 to 0.3 nM and the “IC50, TF-1 proliferation assay, post nebulization (Pari LC Plus)” value [2] was 0.483 nM. The “IC50, TF-1 proliferation assay, pre nebulization (Pari LC Plus)” value [2] was 0.459 nM, the Kd [3] was 0.14 nM and the koff [4] was 0.0017 s⁻¹. The kon [4] was 1.6e+07 M⁻¹ s⁻¹.
